Source: patent US20180155451A1 (published 2018)

T1: FcγRIIb (human, UniProt P31994 43-217)
T1 construct: extracellular domain; also called FcgRIIb; 2b
T1 sequence (looked up): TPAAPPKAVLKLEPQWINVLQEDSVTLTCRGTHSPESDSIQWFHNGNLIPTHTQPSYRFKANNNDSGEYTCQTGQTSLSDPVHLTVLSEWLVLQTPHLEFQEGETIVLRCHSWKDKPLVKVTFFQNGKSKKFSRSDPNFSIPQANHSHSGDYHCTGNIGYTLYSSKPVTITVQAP

T2: FcγRIIa H (human, UniProt P12318 34-217)
T2 construct: extracellular domain; also called FcgRIIa H type; 2aH
T2 sequence (looked up): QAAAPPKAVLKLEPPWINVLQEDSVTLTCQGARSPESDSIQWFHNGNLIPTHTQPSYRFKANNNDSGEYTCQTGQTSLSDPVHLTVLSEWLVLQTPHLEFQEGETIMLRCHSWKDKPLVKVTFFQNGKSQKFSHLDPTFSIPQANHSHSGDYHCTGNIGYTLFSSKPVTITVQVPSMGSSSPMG

T3: FcγRIIb extracellular domain with C-terminal His tag (human, UniProt P31994 43-217)
T3 construct: extracellular domain; also called FcgRIIb; 2b; not shown: His tag at the C terminus
T3 sequence (looked up): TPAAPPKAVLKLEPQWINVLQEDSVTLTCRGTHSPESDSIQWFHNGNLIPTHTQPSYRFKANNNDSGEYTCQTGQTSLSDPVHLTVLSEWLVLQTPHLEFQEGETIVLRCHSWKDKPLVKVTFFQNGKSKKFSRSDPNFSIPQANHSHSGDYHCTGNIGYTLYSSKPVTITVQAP


How the values were obtained:
FcγRIIb = target: T1, FcγRIIb; assay: SPR (Biacore), antibody captured on antigen-peptide chip, FcγR as analyte; binding relative to GpH7-A5/GpH7-B3/GpL16-k0 = 100
FcγRIIa H = target: T2, FcγRIIa H; assay: as above
[1] = target: T3, FcγRIIb extracellular domain with …; assay: SPR (Biacore), antibody captured via antigen peptide, FcγR as analyte; binding relative to GpH7-A5/GpH7-B3/GpL16-k0 = 100
[2] = target: T4, FcγRIIIa extracellular domain with C-terminal His tag (human, UniProt P08637 17-208); assay: as above
T4 construct: extracellular domain; also called FcgRIIIa; 3a; not shown: His tag at the C terminus
T4 sequence (P08637 17-208): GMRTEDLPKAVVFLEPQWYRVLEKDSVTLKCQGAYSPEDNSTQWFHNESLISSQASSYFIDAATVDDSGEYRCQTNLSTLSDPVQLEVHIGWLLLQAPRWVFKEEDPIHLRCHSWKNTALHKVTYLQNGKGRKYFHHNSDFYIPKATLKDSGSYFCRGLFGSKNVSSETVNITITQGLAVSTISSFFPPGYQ

| He/Con_2b (FcγRIIb) | He/Con_2aH (FcγRIIa H) | He/Con_2b [1] | He/Con_3a [2] | Binder |
| --- | --- | --- | --- | --- |
| 94.6 % of HeCon Ab | 102 % of HeCon Ab |  |  | GpH7-A5/GpH7-B3 variant E333_04F/GpL16-k0 (antibody, human IgG1, kappa, Heterodimerized anti-glypican-3 IgG1; substitution in only one H chain (the GpH7-B3 chain); also called He Ab) heavy 1: not shown heavy 2: not shown light: DIVMTQSPLSLPVTPGEPASISCQASESLVHSNRNTYLHWYLQKPGQSPQLLIYKVSNRFSGVPDRFSGSGSGTDFTLKISRVEAEDVGVYYCSQNTHVPPTFGQGTKVEIERTVAAPSVFIFPPSDEQLKSGTASVVCLLNNFYPREAKVQWKVDNALQSGNSQESVTEQDSKDSTYSLSSTLTLSKADYEKHKVYACEVTHQGLSSPVTKSFNRGEC |
| 95 % of HeCon Ab | 102 % of HeCon Ab |  |  | GpH7-A5/GpH7-B3 variant E333_08L/GpL16-k0 (antibody, human IgG1, kappa, Heterodimerized anti-glypican-3 IgG1; substitution in only one H chain (the GpH7-B3 chain); also called He Ab) heavy 1: not shown heavy 2: not shown light: DIVMTQSPLSLPVTPGEPASISCQASESLVHSNRNTYLHWYLQKPGQSPQLLIYKVSNRFSGVPDRFSGSGSGTDFTLKISRVEAEDVGVYYCSQNTHVPPTFGQGTKVEIERTVAAPSVFIFPPSDEQLKSGTASVVCLLNNFYPREAKVQWKVDNALQSGNSQESVTEQDSKDSTYSLSSTLTLSKADYEKHKVYACEVTHQGLSSPVTKSFNRGEC |
| 94.3 % of HeCon Ab | 103 % of HeCon Ab |  |  | GpH7-A5/GpH7-B3 variant E333_09D/GpL16-k0 (antibody, human IgG1, kappa, Heterodimerized anti-glypican-3 IgG1; substitution in only one H chain (the GpH7-B3 chain); also called He Ab) heavy 1: not shown heavy 2: not shown light: DIVMTQSPLSLPVTPGEPASISCQASESLVHSNRNTYLHWYLQKPGQSPQLLIYKVSNRFSGVPDRFSGSGSGTDFTLKISRVEAEDVGVYYCSQNTHVPPTFGQGTKVEIERTVAAPSVFIFPPSDEQLKSGTASVVCLLNNFYPREAKVQWKVDNALQSGNSQESVTEQDSKDSTYSLSSTLTLSKADYEKHKVYACEVTHQGLSSPVTKSFNRGEC |
|  |  | 84.9 relative (control = 100) | 111 relative (control = 100) | GpH7-A5/GpH7-B3 variant I336_02A/GpL16-k0 (antibody, human IgG1, kappa, He Ab: the mutation stands only in the GpH7-B3-derived H chain; also called He Ab I336A) heavy 1: not shown heavy 2: not shown light: DIVMTQSPLSLPVTPGEPASISCQASESLVHSNRNTYLHWYLQKPGQSPQLLIYKVSNRFSGVPDRFSGSGSGTDFTLKISRVEAEDVGVYYCSQNTHVPPTFGQGTKVEIERTVAAPSVFIFPPSDEQLKSGTASVVCLLNNFYPREAKVQWKVDNALQSGNSQESVTEQDSKDSTYSLSSTLTLSKADYEKHKVYACEVTHQGLSSPVTKSFNRGEC |
|  |  | 90.3 relative (control = 100) | 112 relative (control = 100) | GpH7-A5/GpH7-B3 variant I336_03V/GpL16-k0 (antibody, human IgG1, kappa, He Ab: the mutation stands only in the GpH7-B3-derived H chain; also called He Ab I336V) heavy 1: not shown heavy 2: not shown light: DIVMTQSPLSLPVTPGEPASISCQASESLVHSNRNTYLHWYLQKPGQSPQLLIYKVSNRFSGVPDRFSGSGSGTDFTLKISRVEAEDVGVYYCSQNTHVPPTFGQGTKVEIERTVAAPSVFIFPPSDEQLKSGTASVVCLLNNFYPREAKVQWKVDNALQSGNSQESVTEQDSKDSTYSLSSTLTLSKADYEKHKVYACEVTHQGLSSPVTKSFNRGEC |
|  |  | 92.1 relative (control = 100) | 106 relative (control = 100) | GpH7-A5/GpH7-B3 variant I336_09D/GpL16-k0 (antibody, human IgG1, kappa, He Ab: the mutation stands only in the GpH7-B3-derived H chain; also called He Ab I336D) heavy 1: not shown heavy 2: not shown light: DIVMTQSPLSLPVTPGEPASISCQASESLVHSNRNTYLHWYLQKPGQSPQLLIYKVSNRFSGVPDRFSGSGSGTDFTLKISRVEAEDVGVYYCSQNTHVPPTFGQGTKVEIERTVAAPSVFIFPPSDEQLKSGTASVVCLLNNFYPREAKVQWKVDNALQSGNSQESVTEQDSKDSTYSLSSTLTLSKADYEKHKVYACEVTHQGLSSPVTKSFNRGEC |
|  |  | 89.8 relative (control = 100) | 119 relative (control = 100) | GpH7-A5/GpH7-B3 variant I336_10E/GpL16-k0 (antibody, human IgG1, kappa, He Ab: the mutation stands only in the GpH7-B3-derived H chain; also called He Ab I336E) heavy 1: not shown heavy 2: not shown light: DIVMTQSPLSLPVTPGEPASISCQASESLVHSNRNTYLHWYLQKPGQSPQLLIYKVSNRFSGVPDRFSGSGSGTDFTLKISRVEAEDVGVYYCSQNTHVPPTFGQGTKVEIERTVAAPSVFIFPPSDEQLKSGTASVVCLLNNFYPREAKVQWKVDNALQSGNSQESVTEQDSKDSTYSLSSTLTLSKADYEKHKVYACEVTHQGLSSPVTKSFNRGEC |
|  |  | 83.7 relative (control = 100) | 102 relative (control = 100) | GpH7-A5/GpH7-B3 variant I336_13S/GpL16-k0 (antibody, human IgG1, kappa, He Ab: the mutation stands only in the GpH7-B3-derived H chain; also called He Ab I336S) heavy 1: not shown heavy 2: not shown light: DIVMTQSPLSLPVTPGEPASISCQASESLVHSNRNTYLHWYLQKPGQSPQLLIYKVSNRFSGVPDRFSGSGSGTDFTLKISRVEAEDVGVYYCSQNTHVPPTFGQGTKVEIERTVAAPSVFIFPPSDEQLKSGTASVVCLLNNFYPREAKVQWKVDNALQSGNSQESVTEQDSKDSTYSLSSTLTLSKADYEKHKVYACEVTHQGLSSPVTKSFNRGEC |
